Measurements from US20240360228A1 (BIOLEGEND, published 2024).

How the values were obtained:
[1] = target: T1, human chemokine (C-C motif) receptor 8 (CCR8) (human, UniProt P51685 1-355); test: flow cytometry blocking, human PBMC, CD3+ gate; competitor PE-AB11
T1 construct: also called hCCR8
Experimental: (§1) For blocking studies, 100 μL of the cell suspension were incubated with 10 μg purified isotype control, AB1, AB2, AB3, AB4, AB5, AB8, AB9, AB10, AB11, AB12, AB13, AB14, AB15, and Commercial ABI antibodies, or isotype control, as blocking agents.
(§2) After incubation with the blocking agent, the cells were incubated with 0.25 μg of the indicated PE-conjugated antibody plus anti-human CD4 APC or anti-human CD3 for another 15 minutes in the dark and then washed 2 times with Cell Staining Buffer, and acquired in a FACSCanto II flow cytometer (BD Biosciences); the data was analyzed using FCS Express (De Novo Software); MFI correspond to the CCR8+ CD4+ lymphocytes or CCR8+ CD3+ lymphocytes.
(§3) Percentage original MFI was calculated by dividing the MFI of samples blocked with AB1, AB2, AB3, AB4, AB5, AB6, AB7, AB8, AB9, AB10, AB11, AB12, AB13, AB14, AB15, and Commercial ABI antibodies, by the MFI of samples blocked with the corresponding isotype control. This value was subtracted from 100 to get a blocking percentage. The formula is shown below: […]

[2] = target: T1, human chemokine (C-C motif) receptor 8 …; test: flow cytometry blocking, human PBMC, CD3+ gate; competitor PE-AB12
Experimental: as §1, §2, §3

[3] = target: T1, human chemokine (C-C motif) receptor 8 …; test: flow cytometry blocking, human PBMC, CD3+ gate; % cells stained by competitor PE-AB10 after block
Experimental: as §1, §2

[4] = target: T1, human chemokine (C-C motif) receptor 8 …; test: flow cytometry blocking, human PBMC, CD3+ gate; competitor PE-AB14
Experimental: as §1, §2, §3

[5] = target: T1, human chemokine (C-C motif) receptor 8 …; test: flow cytometry blocking, human PBMC, CD3+ gate; competitor PE-AB10
Experimental: as §1, §2, §3

[6] = target: T1, human chemokine (C-C motif) receptor 8 …; test: flow cytometry blocking, human PBMC, CD3+ gate; competitor PE-AB8
Experimental: as §1, §2, §3

[7] = target: T1, human chemokine (C-C motif) receptor 8 …; test: flow cytometry blocking, human PBMC, CD3+ gate; competitor PE-AB13
Experimental: as §1, §2, §3

[8] = target: T1, human chemokine (C-C motif) receptor 8 …; test: flow cytometry blocking, human PBMC, CD3+ gate; % cells stained by competitor PE-AB14 after block
Experimental: as §1, §2

[9] = target: T1, human chemokine (C-C motif) receptor 8 …; test: flow cytometry blocking, human PBMC, CD3+ gate; % cells stained by competitor PE-AB12 after block
Experimental: as §1, §2

[10] = target: T1, human chemokine (C-C motif) receptor 8 …; test: flow cytometry blocking, human PBMC, CD3+ gate; competitor PE-433H
[11] = target: T1, human chemokine (C-C motif) receptor 8 …; test: flow cytometry blocking, human PBMC, CD3+ gate; % cells stained by competitor PE-AB8 after block
Experimental: as §1, §2

[12] = target: T1, human chemokine (C-C motif) receptor 8 …; test: flow cytometry blocking, human PBMC, CD3+ gate; competitor PE-AB7
Experimental: as §1, §2, §3

[13] = target: T1, human chemokine (C-C motif) receptor 8 …; test: flow cytometry blocking, human PBMC, CD3+ gate; % cells stained by competitor PE-AB11 after block
Experimental: as §1, §2

[14] = target: T1, human chemokine (C-C motif) receptor 8 …; test: flow cytometry blocking, human PBMC, CD3+ gate; % cells stained by competitor PE-AB15 after block
Experimental: as §1, §2

[15] = target: T1, human chemokine (C-C motif) receptor 8 …; test: flow cytometry blocking, human PBMC, CD3+ gate; % cells stained by competitor PE-AB13 after block
Experimental: as §1, §2

[16] = target: T1, human chemokine (C-C motif) receptor 8 …; test: flow cytometry blocking, human PBMC, CD3+ gate; competitor PE-AB6
Experimental: as §1, §2, §3

[17] = target: T1, human chemokine (C-C motif) receptor 8 …; test: flow cytometry blocking, human PBMC, CD3+ gate; % cells stained by competitor PE-AB6 after block
Experimental: as §1, §2

[18] = target: T1, human chemokine (C-C motif) receptor 8 …; test: flow cytometry blocking, human PBMC, CD3+ gate; % cells stained by competitor PE-L263G8 after block
Experimental: as §1, §2

[19] = target: T1, human chemokine (C-C motif) receptor 8 …; test: flow cytometry blocking, human PBMC, CD3+ gate; % cells stained by competitor PE-AB7 after block
Experimental: as §1, §2

[20] = target: T1, human chemokine (C-C motif) receptor 8 …; test: flow cytometry blocking, human PBMC, CD3+ gate; competitor PE-L263G8
[21] = target: T1, human chemokine (C-C motif) receptor 8 …; test: flow cytometry blocking, human PBMC, CD3+ gate; % cells stained by competitor PE-AB5 after block
Experimental: as §1, §2

[22] = target: T1, human chemokine (C-C motif) receptor 8 …; test: flow cytometry blocking, human PBMC, CD3+ gate; competitor PE-AB5
Experimental: as §1, §2, §3

[23] = target: T1, human chemokine (C-C motif) receptor 8 …; test: flow cytometry blocking, human PBMC, CD3+ gate; % cells stained by competitor PE-433H after block
Experimental: as §1, §2

[24] = target: T1, human chemokine (C-C motif) receptor 8 …; test: flow cytometry blocking, human PBMC, CD3+ gate; competitor PE-AB15
Experimental: as §1, §2, §3

T1 sequence (P51685 whole entry): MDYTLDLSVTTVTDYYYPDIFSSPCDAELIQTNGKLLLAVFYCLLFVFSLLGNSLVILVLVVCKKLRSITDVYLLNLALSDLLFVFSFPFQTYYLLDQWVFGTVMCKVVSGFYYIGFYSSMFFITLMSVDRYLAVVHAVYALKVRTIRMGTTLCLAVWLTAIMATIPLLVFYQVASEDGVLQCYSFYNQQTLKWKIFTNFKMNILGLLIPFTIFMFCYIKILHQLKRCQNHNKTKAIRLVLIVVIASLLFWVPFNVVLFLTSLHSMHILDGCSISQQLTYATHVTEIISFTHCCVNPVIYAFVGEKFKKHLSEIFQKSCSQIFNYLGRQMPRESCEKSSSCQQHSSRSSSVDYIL

Row | Binder | % Blocking [1] | % Blocking [2] | % Positive cells [3] | % Blocking [4] | % Blocking [5] | % Blocking [6] | % Blocking [7] | % Positive cells [8] | % Positive cells [9] | % Blocking [10] | % Positive cells [11] | % Blocking [12] | % Positive cells [13] | % Positive cells [14] | % Positive cells [15] | % Blocking [16] | % Positive cells [17] | % Positive cells [18] | % Positive cells [19] | % Blocking [20] | further results
1 | anti-CCR8 monoclonal antibody AB5 (antibody, V domains shown, Hybridoma monoclonal; also called antibody 5; clone 5) VH: QVQLKESGPGLVQPSQTLSLTCTVSGFSLTSYHVSWVRQPPGKGLEWMGVIWTGGSTTYNSLLKSRLSISRDISKSQVFLKMNSLQTEDTATYYCARGGTVVKGGFAYWGQGTLVTVSS VL: DIQMTQSPASLSASLEEIVTITCQASQDIGNRLSWYQQKPGKSPQLLIYGATSLADGVPSRFSGSRSGTQYSLKISRLQVEDIGIYYCLQAYSTPLTFGSGTKLEIK | -1.71% | -0.13% | 7.42% | 9.26% | -23.1% | 0.12% | -5.41% | 6.47% | 7.54% | -0.99% | 8.45% | -7.14% | 7.14% | 6.75% | 7.01% | 96.1% | 0.32% | 7.17% | 9.75% | -22.1% | % Positive cells [21]: 1.25%; % Blocking [22]: 84.9%; % Positive cells [23]: 7.14%; % Blocking [24]: -2.58%
2 | anti-CCR8 monoclonal antibody AB6 (antibody, V domains shown, also called antibody 6; clone 6) VH: QVQLKESGPGLVQPSQTLSLTCTVSGFSLTSYHVSWVRQPPGKGLEWMGVIWTGGSTTYNSLLKSRLSISRDISKSQVFLKMNSLQTEDTATYYCARGGTVVKGGFAYWGQGTLVTVSS VL: DIQMTQSPASLSASLEEIVTITCQASQDIGNRLSWYQQKPGKSPQLLIYGATSLADGVPSRFSGSRSGTQYSLKISRLQVEDIGIYYCLQAYSTPLTFGSGTKLEIK | -9.26% | 5.71% | 5.61% | 10.2% | 6.97% | 85.2% | 2.41% | 6.4% | 7.1% | 9.05% | 1.25% | 83% | 7.67% | 5.92% | 6.49% | 12.4% | 7.25% | 6.58% | 1.55% | -12.1% | % Positive cells [21]: 7.69%; % Blocking [22]: 7.24%; % Positive cells [23]: 6.43%; % Blocking [24]: 10%

Continued, in another order:

Row | % Blocking [1] | % Blocking [2] | % Positive cells [3] | % Blocking [4] | % Blocking [5] | % Blocking [6] | % Blocking [7] | % Positive cells [8] | % Positive cells [9] | % Blocking [10] | % Positive cells [11] | % Blocking [12] | % Positive cells [13] | % Positive cells [14] | % Positive cells [15] | % Blocking [16] | % Positive cells [17] | % Positive cells [18] | % Positive cells [19] | % Blocking [20] | Binder | further results
3 | 98% | 99.3% | 0.53% | 96.3% | 91.2% | 92.9% | 85.6% | 0.26% | 0.05% | 87.5% | 0.6% | 83.8% | 0.14% | 0.85% | 0.96% | -0.24% | 8.3% | 1.19% | 1.47% | 79.7% | anti-CCR8 monoclonal antibody AB7 (antibody, V domains shown, Hybridoma monoclonal; also called antibody 7; clone 7) VH: AVQLVESGGGLVQPKESLKISCAASGFTFSYAAMYWVRQTPGKGLEWVARIRTKPNNYATYYADSVKGRFTISRDDSKSMVYLQMDNLKSEDTAMYYCNIMGITRGYYFDYWGQGVMVTVSS VL: DIQMTQSPSFLSASVGDRVTINCKASQNINRYLNWYQQQLGEAPKLLIYNANNLQTGIPSRFSGSRSGTDFTLTISSLQPEDVATYFCLQHNSWPWTFGGGTKLELK | % Positive cells [21]: 8.68%; % Blocking [22]: -4.7%; % Positive cells [23]: 0.88%; % Blocking [24]: 87.1%
4 | 90.2% | 99.3% | 0.65% | 98.5% | 89.2% | 18% | 96.1% | 0.11% | 0.05% | 88.1% | 6.94% | 6.48% | 0.69% | 0.07% | 0.26% | 1.33% | 8.17% | 0.44% | 8.51% | 92.5% | anti-CCR8 monoclonal antibody AB8 (antibody, V domains shown, Hybridoma monoclonal; also called antibody 8; clone 8) VH: AVQLVESGGGLVQPKESLKISCAASGFIFSNAAMYWVRQAPGKGLQWVARIRTKPKNYATYYIDSVKGRFTISRDDSKSMVYLQMDNLKTEDTAMYYCNTMGLTRAYYFDYWGQGVMVTVSS VL: DIQMTQSPSFLSASVGDRVTINCKASQNINRYLNWYQQKLGEAPKLLIYNANSLQTGIPSRFSGSGSGTDFTLTIRSLQPEDVATYFCLQHNSWPWTFGGGTKLELK | % Positive cells [21]: 8.95%; % Blocking [22]: -7.96%; % Positive cells [23]: 0.84%; % Blocking [24]: 98.9%
5 | 96% | 93.9% | 0.15% | 96.2% | 97.5% | 48.6% | 88.1% | 0.27% | 0.46% | 19.9% | 4.35% | 50.1% | 0.28% | 0.29% | 0.79% | 6.04% | 7.78% | 0.57% | 4.54% | 90.3% | anti-CCR8 monoclonal antibody AB10 (antibody, V domains shown, Hybridoma monoclonal; also called antibody 10; clone 10) VH: EVQLVETGGGLVQPKGSLKLSCAVSGFTFKTNAMNWVRQAPGKGLEWVARIRSKSNKYATYYADSVKDRFTISRDDSQSMLYLQMNNLKTEDTAMYYCVRGSEMGYYYAMDYWGQGTSVTVSS VL: DIVMTQAAPSVPVTPGESVSISCRSSKSLLHSNGNTYLYWFLQRPGQSPQLLIYRMSNLASGVPDRFSGSGSGTAFTLRISRVEAEDVGVYYCMQHLEYPFTFGGGTKLEIK | % Positive cells [21]: 8.75%; % Blocking [22]: -5.55%; % Positive cells [23]: 5.66%; % Blocking [24]: 95.6%
